Reference: patent publication US20200292555

Molecular target: T1, Ac-DEVD-CHO
T1 chain: DEVD

B1: recombinant, purified active CASP10 (protein)
chain: VKTFLEALPQESWQNKHAGSNGNRATNGAPSLVSRGMQGASANTLNSETSTKRAAVYRMNRNHRGLCVIVNNHSFTSLKDRQGTHKDAEILSHVFQWLGFTVHIHNNVTKVEMEMVLQKQKCNPAHADGDCFVFCILTHGRFGAVYSSDEALIPIREIMSHFTALQCPRLAEKPKLFFIQACQGEEIQPSVSIEADALNPEQAPTSLQDSIPAEADFLLGLATVPGYVSFRHVEEGSWYIQSLCNHLKKLVPRMLKFLEKTMEIRGRKRTVWGAKQISATSLPTAISAQTPRPPMRRWSSVS
activity of recombinant, purified active CASP10 (500 nM; fluorometric AEVD-AMC substrate in MDA-MB-231 lysate): DEVD-CHO ... (20 µM) inhibited the activity of CASP10
